T1: recombinant SNAP-tagged NLRP1^DR purified from bacteria
T1 chain: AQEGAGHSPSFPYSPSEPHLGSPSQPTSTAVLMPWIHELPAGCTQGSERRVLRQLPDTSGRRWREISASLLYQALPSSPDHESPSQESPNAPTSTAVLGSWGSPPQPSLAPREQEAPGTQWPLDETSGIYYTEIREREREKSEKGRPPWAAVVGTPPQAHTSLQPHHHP

B1: ZAKα kinase (wild-type) (protein)
chain: MSSLGASFVQIKFDDLQFFENCGGGSFGSVYRAKWISQDKEVAVKKLLKIEKEAEILSVLSHRNIIQFYGVILEPPNYGIVTEYASLGSLYDYINSNRSEEMDMDHIMTWATDVAKGMHYLHMEAPVKVIHRDLKSRNVVIAADGVLKICDFGASRFHNHTTHMSLVGTFPWMAPEVIQSLPVSETCDTYSYGVVLWEMLTREVPFKGLEGLQVAWLVVEKNERLTIPSSCPRSFAELLHQCWEADAKKRPSFKQIISILESMSNDTSLPDKCNSFLHNKAEWRCEIEATLERLKKLERDLSFKEQELKERERRLKMWEQKLTEQSNTPLLPSFEIGAWTEDDVYCWVQQLVRKGDSSAEMSVYASLFKENNITGKRLLLLEEEDLKDMGIVSKGHIIHFKSAIEKLTHDYINLFHFPPLIKDSGGEPEENEEKIVNLELVFGFHLKPGTGPQDCKWKMYMEMDGDEIAITYIKDVTFNTNLPDAEILKMTKPPFVMEKWIVGIAKSQTVECTVTYESDVRTPKSTKHVHSIQWSRTKPQDEVKAVQLAIQTLFTNSDGNPGSRSDSSADCQWLDTLRMRQIASNTSLQRSQSNPILGSPFFSHFDGQDSYAAAVRRPQVPIKYQQITPVNQSRSSSPTQYGLTKNFSSLHLNSRDSGFSSGNTDTSSERGRYSDRSRNKYGRGSISLNSSPRGRYSGKSQHSTPSRGRYPGKFYRVSQSALNPHQSPDFKRSPRDLHQPNTIPGMPLHPETDSRASEEDSKVSEGGWTKVEYRKKPHRPSPAKTNKERARGDHRGWRNF
B2: p38β (protein)
chain: MSGPRAGFYRQELNKTVWEVPQRLQGLRPVGSGAYGSVCSAYDARLRQKVAVKKLSRPFQSLIHARRTYRELRLLKHLKHENVIGLLDVFTPATSIEDFSEVYLVTTLMGADLNNIVKCQALSDEHVQFLVYQLLRGLKYIHSAGIIHRDLKPSNVAVNEDCELRILDFGLARQADEEMTGYVATRWYRAPEIMLNWMHYNQTVDIWSVGCIMAELLQGKALFPGSDYIDQLKRIMEVVGTPSPEVLAKISSEHARTYIQSLPPMPQKDLSSIFRGANPLAIDLLGRMLVLDSDQRVSAAEALAHAYFSQYHDPEDEPEAEPYDESVEAKERTLEEWKELTYQEVLSFKPPEPPKPPGSLEIEQ

Biological target: T1, recombinant SNAP-tagged NLRP1^DR …

| Protein | phosphorylation in a recombinant kinase reaction (PhosTag SDS-PAGE, SNAP ligand fluorescence) | phosphorylation in a recombinant kinase assay |
| --- | --- | --- |
| B1 | recombinant ZAKα is sufficient to phosphorylate SNAP-tagged NLRP1^DR purified from bacteria | – |
| B2 | – | both p38α/β can phosphorylate NLRP1^DR in a recombinant kinase assay |
